Our source for the absorbance and absorbance (412 nm filter) values is patent US20040115215A1.

Assay [1] addresses Crotalus durissus terrificus venom. Description: ELISA, C.d.t. venom-coated; dilution 1:5.
Assay [2] shares this target. Description: ELISA, C.d.t. venom-coated; undiluted. Background: An ELISA detects its analyte on a solid surface through an enzyme-linked reagent.
The target is the same in assay [3]. The assay is described as follows: ELISA, C.d.t. venom-coated; dilution 1:125.
Assay [4] shares this target. The assay is described as follows: ELISA, C.d.t. venom-coated; dilution 1:62,500.
The target is the same in assay [5]. The assay is described as follows: ELISA, C.d.t. venom-coated; dilution 1:3125.
Assay [6] has the same target. Description: ELISA, C.d.t. venom-coated; dilution 1:2,500.
Assay [7] has the same target. Description: ELISA, C.d.t. venom-coated; dilution 1:312,500.
Assay [8] shares this target. Description: ELISA, C.d.t. venom-coated; dilution 1:125. The source holds these as a separate data set.
For assay [9] the target is unchanged. Description: ELISA, C.d.t. venom-coated; dilution 1:625.
The target is the same in assay [10]. The assay is described as follows: ELISA, C.d.t. venom-coated; dilution 1:3125. The source holds these as a separate data set.
Assay [11] shares this target. Description: ELISA, C.d.t. venom-coated; dilution 1:625. The source holds these as a separate data set.
Assay [12] has the same target. Description: ELISA, C.d.t. venom-coated; dilution 1:25.
The target is the same in assay [13]. The assay is described as follows: ELISA, C.d.t. venom-coated; dilution 1:500.
For assay [14] the target is unchanged. Description: ELISA, C.d.t. venom-coated; dilution 1:12,500.
For assay [15] the target is unchanged. Description: ELISA, C.d.t. venom-coated; dilution 1:25. This is another data set of the same source.

“preimmune IgY (from unimmunized hens or supermarket eggs) (antibody)”: the absorbance was less than 0 OD in assay [1]; 0.003 OD in assay [2]; 0.003 OD in assay [3]; less than 0 OD in assay [5]; less than 0 OD in assay [8]; less than 0 OD in assay [9]. Further, the absorbance in assay [10] is 0.002 OD; in assay [11], 0 OD; in assay [12], 0.016 OD; in assay [15], 0 OD. Further, the absorbance (412 nm filter) in [4] turned out to be 0.001 OD; in assay [6], 0.004 OD; in assay [7] it was 0.01 OD; in assay [13], 0.005 OD; in assay [14] it was 0.001 OD.
